{"source": "IntAct's records for PubMed 31515488", "parents": {"B1": {"name": "Cdc42 effector protein 4 (Homo sapiens), Q9H3Q1 (parent)", "chain": "MPILKQLVSSSVHSKRRSRADLTAEMISAPLGDFRHTMHVGRAGDAFGDTSFLNSKAGEPDGESLDEQPSSSSSKRSLLSRKFRGSKRSQSVTRGEREQRDMLGSLRDSALFVKNAMSLPQLNEKEAAEKGTSKLPKSLSSSPVKKANDGEGGDEEAGTEEAVPRRNGAAGPHSPDPLLDEQAFGDLTDLPVVPKATYGLKHAESIMSFHIDLGPSMLGDVLSIMDKEEWDPEEGEGGYHGDEGAAGTITQAPPYAVAAPPLARQEGKAGPDLPSLPSHALEDEGWAAAAPSPGSARSMGSHTTRDSSSLSSCTSGILEERSPAFRGPDRARAAVSRQPDKEFSFMDEEEEDEIRV"}, "B2": {"name": "Notch homolog 2 N-terminal-like protein A (Homo sapiens), Q7Z3S9 (parent)", "chain": "MCVTYHNGTGYCKCPEGFLGEYCQHRDPCEKNRCQNGGTCVAQAMLGKATCRCASGFTGEDCQYSTSHPCFVSRPCLNGGTCHMLSRDTYECTCQVGFTGKECQWTDACLSHPCANGSTCTTVANQFSCKCLTGFTGQKCETDVNECDIPGHCQHGGTCLNLPGSYQCQCLQGFTGQYCDSLYVPCAPSPCVNGGTCRQTGDFTFECNCLPETVRRGTELWERDREVWNGKEHDEN", "partner": "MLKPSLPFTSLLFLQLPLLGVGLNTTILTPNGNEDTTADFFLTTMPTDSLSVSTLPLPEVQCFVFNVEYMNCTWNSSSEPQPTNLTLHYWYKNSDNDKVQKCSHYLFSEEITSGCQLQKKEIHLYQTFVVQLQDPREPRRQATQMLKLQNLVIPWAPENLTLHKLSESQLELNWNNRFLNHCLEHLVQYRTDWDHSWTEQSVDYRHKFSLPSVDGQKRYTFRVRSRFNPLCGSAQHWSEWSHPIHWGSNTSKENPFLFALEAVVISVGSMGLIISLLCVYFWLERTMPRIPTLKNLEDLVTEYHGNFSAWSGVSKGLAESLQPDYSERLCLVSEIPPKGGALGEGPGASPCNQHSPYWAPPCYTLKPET"}, "B3": {"name": "Beta-taxilin (Homo sapiens), Q8N3L3 (parent)", "chain": "MEANHSEQLSAERQSTPPGDSSSLPSHNGLEKEDGQDSPTPVQPPEKEASVHPDISEELNRQLEDIINTYGSAASTAGKEGSARASEQPENAESPDNEDGDCEETTEEAGREPVASGEPPTVKEPVSNKEQKLEKKILKGLGKEANLLMQNLNKLQTPEEKFDFLFKKYAELLDEHRTEQKKLKLLQKKQVQIQKEKDQLQGEHSRAILARSKLESLCRELQRHNKTLKEEALQRAREEEEKRKEITSHFQSTLTDIQGQIEQQSERNMKLCQENTELAEKLKSIIDQYELREEHLDKIFKHRELQQKLVDAKLEQAQEMMKEAEERHKREKEYLLNQAAEWKLQAKVLKEQETVLQAQLTLYSGRFEEFQSTLTKSNEVFATFKQEMDKTTKKMKKLEKDTATWKARFENCNKALLDMIEEKALRAKEYECFVMKIGRLENLCRALQEERNELHKKIRDAEISEKDDQSQHNSDEEPESNVSVDQEIDAEEVNSVQTAVKNLATAFMIIHHPESTPHQSKETQPEIGSSQESADAALKEPEQPPLIPSRDSESPLPPLTPQAEAEGGSDAEPPSKASNSPAGLGAETQCEGLPVGAQADQASWKPEAEASGQAPQAPTEASLQKMEADVPAPACAAEEHVAAMVPACEPSRQPPRAAAEELPVGASAGPQPRNVADTNLEGVD", "partner": "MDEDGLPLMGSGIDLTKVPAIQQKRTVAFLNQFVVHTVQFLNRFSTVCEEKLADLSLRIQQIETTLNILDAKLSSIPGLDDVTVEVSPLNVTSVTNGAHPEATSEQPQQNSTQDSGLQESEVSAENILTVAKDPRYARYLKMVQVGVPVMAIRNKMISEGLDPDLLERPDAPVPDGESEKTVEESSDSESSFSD"}, "B4": {"name": "Mediator of RNA polymerase II transcription subunit 18 (Homo sapiens), Q9BUE0 (parent)", "chain": "MEAPPVTMMPVTGGTINMMEYLLQGSVLDHSLESLIHRLRGLCDNMEPETFLDHEMVFLLKGQQASPFVLRARRSMDRAGAPWHLRYLGQPEMGDKNRHALVRNCVDIATSENLTDFLMEMGFRMDHEFVAKGHLFRKGIMKIMVYKIFRILVPGNTDSTEALSLSYLVELSVVAPAGQDMVSDDMKNFAEQLKPLVHLEKIDPKRLM", "partner": "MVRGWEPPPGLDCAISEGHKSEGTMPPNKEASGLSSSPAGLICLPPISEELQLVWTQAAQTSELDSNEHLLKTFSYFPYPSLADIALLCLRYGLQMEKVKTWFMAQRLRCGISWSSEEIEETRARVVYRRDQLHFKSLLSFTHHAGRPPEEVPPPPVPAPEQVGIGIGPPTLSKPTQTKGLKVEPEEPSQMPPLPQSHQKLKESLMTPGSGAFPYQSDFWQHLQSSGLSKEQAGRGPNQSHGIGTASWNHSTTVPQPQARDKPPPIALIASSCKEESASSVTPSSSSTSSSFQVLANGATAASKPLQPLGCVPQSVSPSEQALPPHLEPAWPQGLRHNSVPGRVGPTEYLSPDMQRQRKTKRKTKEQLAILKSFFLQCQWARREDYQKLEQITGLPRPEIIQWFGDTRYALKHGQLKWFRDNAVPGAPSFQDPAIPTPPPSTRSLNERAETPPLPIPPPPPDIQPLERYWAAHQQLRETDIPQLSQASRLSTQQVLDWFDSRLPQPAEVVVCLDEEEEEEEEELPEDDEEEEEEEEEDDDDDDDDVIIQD"}, "B5": {"name": "Actin nucleation-promoting factor WAS (Homo sapiens), P42768 (parent)", "chain": "MSGGPMGGRPGGRGAPAVQQNIPSTLLQDHENQRLFEMLGRKCLTLATAVVQLYLALPPGAEHWTKEHCGAVCFVKDNPQKSYFIRLYGLQAGRLLWEQELYSQLVYSTPTPFFHTFAGDDCQAGLNFADEDEAQAFRALVQEKIQKRNQRQSGDRRQLPPPPTPANEERRGGLPPLPLHPGGDQGGPPVGPLSLGLATVDIQNPDITSSRYRGLPAPGPSPADKKRSGKKKISKADIGAPSGFKHVSHVGWDPQNGFDVNNLDPDLRSLFSRAGISEAQLTDAETSKLIYDFIEDQGGLEAVRQEMRRQEPLPPPPPPSRGGNQLPRPPIVGGNKGRSGPLPPVPLGIAPPPPTPRGPPPPGRGGPPPPPPPATGRSGPLPPPPPGAGGPPMPPPPPPPPPPPSSGNGPAPPPLPPALVPAGGLAPGGGRGALLDQIRQGIQLNKTPGAPESSALQPPPQSSEGLVGALMHVMQKRSRAIHSSDEGEDQAGDEDEDDEWDD"}}, "data": [{"variants_of": "B1", "conditions": "with fam9b_human FAM9B", "values": [{"variant": "M102V", "effect of a mutation on the interaction": "with no effect"}]}, {"variants_of": "B2", "conditions": "with il2rg_human IL2RG", "values": [{"variant": "R74Q", "effect of a mutation on the interaction": "with no effect"}, {"variant": "A115T", "effect of a mutation on the interaction": "with no effect"}]}, {"variants_of": "B3", "conditions": "with wasc3_human WASHC3, Q9Y3C0", "values": [{"variant": "I527T", "effect of a mutation on the interaction": "with no effect"}]}, {"variants_of": "B4", "conditions": "with homez_human HOMEZ", "values": [{"variant": "M19V", "effect of a mutation on the interaction": "with no effect"}]}, {"variants_of": "B5", "conditions": "with cdc42_human CDC42, P60953", "values": [{"variant": "I294T", "effect of a mutation on the interaction": "disrupting interaction strength"}]}]}
